US9492510B2, “Composition and method for inhibiting tumor cell growth” (St. Jude Children's Research Hospital, priority 2006, dated 2016)

B1: hCE1 variant hCE1m6 (hCE1mut6; L362M, M363L, K459R, F448Y, Q449R, L358I, S364G, Q362 insertion), SEQ ID NO:3 (Homo sapiens; … (protein)
chain: GHPSSPPVVDTVHGKVLGKFVSLEGFAQPVAIFLGIPFAKPPLGPLRFTPPQPAEPWSFVKNATSYPPMCTQDPKAGQLLSELFTNRKENIPLKLSEDCLYLNIYTPADLTKKNRLPVMVWIHGGGLMVGAASTYDGLALAAHENVVVVTIQYRLGIWGFFSTGDEHSRGNWGHLDQVAALRWVQDNIASFGGNPGSVTIFGESAGGESVSVLVLSPLAKNLFHRAISESGVALTSVLVKKGDVKPLAEQIAITAGCKTTTSAVMVHCLRQKTEEELLETTLKMKFLSLDLQGDPRESQPLLGTVIDGMLLLKTPEELQAERNFHTVPYMVGINKQEFGWIIPMQMLGYPLSEGQLDQKTAMSLLWKSYPLVCIAKELIPEATEKYLGGTDDTVKKKDLFLDLIADVMFGVPSVIVARNHRDAGAPTYMYEYRYRPSFSSDMRPKTVIGDHGDELFSVFGAPFLKEGASEEEIRLSKMVMKFWANFARNGNPNGEGLPHWPEYNQKEGYLQIGANTQAAQKLKDKEVAFWTNLFAKKAVEKPPQTEHIEL
B2: rCE: wild-type rabbit liver carboxylesterase, Genbank AF036930 (protein, listed as Oryctolagus cuniculus)
chain: GSLRFAPPQPAESWSHVKNTTSYPPMCSQDAVSGHMLSELFTNRKENIPLKFSEDCLYLNIYTPADLTKRGRLPVMVWIHGGGLMVGGASTYDGLALSAHENVVVVTIQYRLGIWGFFSTGDEHSRGNWGHLDQVAALRWVQDNIANFGGDPGSVTIFGESAGGQSVSILLLSPLTKNLFHRAISESGVALLSSLFRKNTKSLAEKIAIEAGCKTTTSAVMVHCLRQKTEEELMEVTLKMKFMALDLVGDPKENTAFLTTVIDGVLLPKAPAEILAEKKYNMLPYMVGINQQEFGWIIPMQMLGYPLSEGKLDQKTATELLWKSYPIVNVSKELTPVATEKYLGGTDDPVKKKDLFLDMLADLLFGVPSVNVARHHRDAGAPTYMYEYRYRPSFSSDMRPKTVIGDHGDEIFSVLGAPFLKEGATEEEIKLSKMVMKYWANFARNGNPNGEGLPQWPAYDYKEGYLQIGATTQAAQKLKDKEVAFWTELWAKEAARPRETEHIEL
B3: hCE1: wild-type human liver carboxylesterase, Genbank M73499 (protein, listed as Homo sapiens)
chain: MWLRAFILATLSASAAWGHPSSPPVVDTVHGKVLGKFVSLEGFAQPVAIFLGIPFAKPPLGPLRFTPPQPAEPWSFVKNATSYPPMCTQDPKAGQLLSELFTNRKENIPLKLSEDCLYLNIYTPADLTKKNRLPVMVWIHGGGLMVGAASTYDGLALAAHENVVVVTIQYRLGIWGFFSTGDEHSRGNWGHLDQVAALRWVQDNIASFGGNPGSVTIFGESAGGESVSVLVLSPLAKNLFHRAISESGVALTSVLVKKGDVKPLAEQIAITAGCKTTTSAVMVHCLRQKTEEELLETTLKMKFLSLDLQGDPRESQPLLGTVIDGMLLLKTPEELQAERNFHTVPYMVGINKQEFGWLIPMLMSYPLSEGQLDQKTAMSLLWKSYPLVCIAKELIPEATEKYLGGTDDTVKKKDLFLDLIADVMFGVPSVIVARNHRDAGAPTYMYEFQYRPSFSSDMKPKTVIGDHGDELFSVFGAPFLKEGASEEEIRLSKMVMKFWANFARNGNPNGEGLPHWPEYNQKEGYLQIGANTQAAQKLKDKEVAFWTNLFAKKAVEKPPQTEHIEL
B4: secreted form of hCE1mut6: mutant human CE lacking the six C-terminal amino acid residues (Thr-Glu-His-Ile-Glu-Leu); expressed from pIRESmut6C (protein)
chain: MWLRAFILATLSASAAWGHPSSPPVVDTVHGKVLGKFVSLEGFAQPVAIFLGIPFAKPPLGPLRFTPPQPAEPWSFVKNATSYPPMCTQDPKAGQLLSELFTNRKENIPLKLSEDCLYLNIYTPADLTKKNRLPVMVWIHGGGLMVGAASTYDGLALAAHENVVVVTIQYRLGIWGFFSTGDEHSRGNWGHLDQVAALRWVQDNIASFGGNPGSVTIFGESAGGESVSVLVLSPLAKNLFHRAISESGVALTSVLVKKGDVKPLAEQIAITAGCKTTTSAVMVHCLRQKTEEELLETTLKMKFLSLDLQGDPRESQPLLGTVIDGMLLLKTPEELQAERNFHTVPYMVGINKQEFGWIIPMQMLGYPLSEGQLDQKTAMSLLWKSYPLVCIAKELIPEATEKYLGGTDDTVKKKDLFLDLIADVMFGVPSVIVARNHRDAGAPTYMYEYRYRPSFSSDMRPKTVIGDHGDELFSVFGAPFLKEGASEEEIRLSKMVMKFWANFARNGNPNGEGLPHWPEYNQKEGYLQIGANTQAAQKLKDKEVAFWTNLFAKKAVEKPPQ
modifications: Synthethic mutant human carboxylesterase
notes: mutant human CE lacking the six C-terminal amino acid residues (Thr-Glu-His-Ile-Glu-Leu); expressed from pIRESmut6C

Assays:
[1] = substrate: CCc1c2c(nc3ccc(OC(=O)N4CCC(N5CCCCC5)CC4)cc13)-c1cc3c(c(=O)n1C2)COC(=O)[C@]3(O)CC; test: purified protein, by the assay type; details: other: CPT-11 hydrolysis, hCE1m6
[2] = CE activity (o-NPA) in human tumor cell lines expressing CE after plasmid transfection or adenoviral transduction; format: biochemical; details: for CE Activity: ± SD, U373MG cells stably transfected (pIRESneo) expressing the enzyme
Description: […], it was observed that expression of hiCE following plasmid-mediated transfection was frequently lower than that seen with rCE or […]. […] Since expression of the transgene from this expression vector is co-regulated with the neo gene via an IRES sequence, selection with similar concentrations of G418 should result in cell lines that express approximately equal levels of recombinant protein. However, the average levels of CE activity in U373hiCE, U373hCE1 and U373hCE1m6 cells were 287.6±76.6, 1077.1±77.5, and 466.5±52.6 nmoles/min/mg, respectively.
(§1) Carboxylesterase Assays. CE activity was determined using a spectrophotometric assay with 3 mM o-nitrophenyl acetate (o-NPA) as a substrate (Potter, et al. 1998. Cancer Res. 52:2646-2651; Wierdl, et al. 2001. Cancer Res. 61:5078-5082; Beaufay, et al. 1974. J. Cell Biol. 61:188-200). Data were expressed as nmoles o-nitrophenol produced per minute per milligram of protein. To correct for differences in CE expression within transfected cells, the enzyme activity values were corrected for the level of immuno-reactive CE protein as determined from western analyses.
(§2) Transfection of Cell Lines. Transient transfection of Cos7 cells was achieved by electroporation (Potter, et al. 1998. Cancer Res. 52:2646-2651). For the generation of stable cell lines, cDNAs were ligated into pIRESneo and U373MG cells were electroporated under similar conditions. Transfectants were selected in media containing 400 μg/ml of G418. Since the CE cDNA was linked via an internal ribosome entry sequence (IRES) to the neomycin gene, selection of individual G418-resistant clones was not necessary. Routinely, whole cell sonicates obtained from these pooled populations of cells contained 200-500 nmoles/min/mg of CE activity.
(§3) Construction of Adenovirus. Replication-deficient adenovirus expressing hCElm6 or rCE were constructed using standard protocols (Wierdl, et al. 2001. Cancer Res. 61:5078-5082). Multiplicity of infection (moi) was defined as the number of plaques produced in 1×10^6 293 cells in a total volume of 1 ml of media after incubation with virus for 1 hour.

[3] = Carboxylesterase (CE) activity of whole cell sonicates of transiently transfected Cos7 cells, o-NPA substrate; format: biochemical
Protocol: (§4) Whole cell sonicates were monitored for CE activity. Results were expressed as nmoles o-nitrophenol produced per minute per milligram of total protein. To correct for differences in CE expression within transfected cells, the enzyme activity values were corrected for the level of immunoreactive CE protein as determined using a western blot analysis.
as §1, §2
(§5) Western Analysis. Cell extracts were separated in 4-20% pre-cast SDS-PAGE gels (Invitrogen, Carlsbad, Calif.) and following transfer to Immobilon-P membranes by electroblotting (Matsuidaira. 1990. Methods Enzymol. 182:602-613), western analysis was performed using known methods (Morton & Potter. 1998. J. Pharmacol. Expt. Therap. 286:1066-1073). CEs were identified using an anti-peptide antibody raised against the C-terminal amino acids […] In all experiments, membranes were re-probed with an anti-TFIID antibody to confirm equal loading, and to correct for any differences in total protein. The molecular weight of immuno-reactive bands was determined using pre-stained molecular weight protein markers (Pierce, Rockford, Ill.). Densitometric quantitation of CE expression was performed using One-Dscan gel analysis software (Scanalytics Inc, Fairfax, Va.).

U373MG cells = test: Growth inhibition by CPT-11 of U373MG cells; format: cell-based, human; details: for sensitization of cells to CPT-11: U373MG cells expressing the labelled enzyme
Protocol: Experiments were also performed in human brain tumor cells (U373MG) where the growth of the cells was examined in cells that expressed the mutant form of the human CE enzyme.
Experiments were also performed to determine whether cells expressing a secreted form of hCElm6 (SEQ ID NO:16) produced media that had CE activity.
Transfection of Cell Lines. Transient transfection of Cos7 cells was achieved by electroporation (Potter, et al. 1998. Cancer Res. 52:2646-2651). For the generation of stable cell lines, cDNAs were ligated into pIRESneo and U373MG cells were electroporated under similar conditions. Transfectants were selected in media containing 400 μg/ml of G418. Since the CE cDNA was linked via an internal ribosome entry sequence (IRES) to the neomycin gene, selection of individual G418-resistant clones was not necessary.
as §3
Growth Inhibition Assays.

[4] = Kinetic parameters for CPT-11 hydrolysis by purified recombinant CEs; format: biochemical; details: hCE1 and rCE values rest on cited data
Protocol: To directly compare the abilities of the mammalian CEs to hydrolyze CPT-11, a series of biochemical studies were carried out using the purified proteins in vitro. These experiments determined the Km, Vmax, kcat and kcat/Km values for the different enzymes.
Protein Purification. […] For hiCE, an alternative purification procedure was developed using DEAE chromatography and elution with a pH/salt gradient.
Determination of Kinetic Parameters for Substrate Hydrolysis.

[5] = CPT-11 conversion assay (CPT-11 to SN-38) with extracts of transfected COS-7 cells, HPLC; format: biochemical; details: Cos7 cell extracts
Description: as §4
This was necessary since it was unclear whether the mutations would influence the ability of the CEs to metabolize o-NPA, which is used as a measure of enzyme activity.
CPT-11 Conversion Assays. […] An equal volume of acidified methanol was added to terminate the reactions and particulate matter was removed by centrifugation at 100,000 g for 5 minutes at 4° C. Concentrations of both drugs in the supernatant were then determined by HPLC (Guichard, et al. 1998. Clin. Cancer Res. 4:3089-3094; Morton, et al. 2000. Cancer Res. 60:4206-4210).
as §5

[6] = Table 3, Cos7 whole cell sonicates, 3 mM o-NPA, nmoles o-nitrophenol per min per mg
[7] = Table 4, rCE mutant panel, Cos7 extracts, o-NPA

Row | Molecule | Km [1] | CE Activity [2] | CE Activity [3, 6] | CE Activity [3, 7] | sensitization of cells to CPT-11 (U373MG cells) | Ratio kcat/Km as compared to hCE1 [4] | CPT-11 Converting Activity ([5]; Table 3, 5 μM CPT-11, 1 hour, corrected for CE protein by western) | CPT-11 Converting Activity ([5]; Table 4, rCE mutant panel) | average levels of CE activity ([2]; U373MG cells stably transfected with pIRESneo constructs, monitored over an extended time period) | fold reduction in the IC50 value for CPT-11 (U373MG cells; U373MG cells expressing intracellular (u373IRESmut6) or secreted (U373IRESmut6C) form, FIG. 4)
1 | B1 | 6.25 ± 0.59 µM | – | – | – | – | – | – | – | – | –
2 | B2 | – | 601.0 ± 20.5 nmol/min/mg | 332.7 ± 17.2 nmol/min/mg | 243.1 ± 17.0 nmol/min/mg CE | sensitized | 650 | 41 pmol/hr/mg CE | 75.6 pmol/hr/mg CE | – | –
3 | B3 | – | 1016.4 ± 45.5 nmol/min/mg | 119.0 ± 5.0 nmol/min/mg | 329.2 ± 11.6 nmol/min/mg CE | not sensitized | 1 | – | Not Detected | 1077.1 ± 77.5 nmol/min/mg | –
4 | B4 | – | – | – | – | – | – | – | – | – | ~130 fold
